According to article PMC7595577:

Biological target: biotinylated CD16 (UniProt P08637)
Experiment: BLI

B1: QA255.072 IgG (antibody, V domains shown)
VH: QVQLIQSGAEVRKPGSSVKVSCKAVGATFHNYAVSWVRQAPGQGLEWMGGIIPIRGLANQEPRFQGRLTITADESTGAIYMDLSSLRSDDSAVYYCARHYDDTSGFFYGAFDIWGQGTTLIVSS
VL: DIQMTQSPPSLSASVGDRVTISCRASQGIGNSVAWYQQKPGKAPKLLILAASSLRSGVPSRFSGSMSGTDFTLTISGLQPEDVATYYCQKYNSAPWTFGQGTKVEIK
B1 showed a Kd of 4.9 µM.
